Measurements published in paper PMC3655262.
Read-outs that look alike come from different tables or passages of the source.

T1: hZFP57zf3-4E273A (Homo sapiens, UniProt Q9NU63-3 227-287, C232F;E273A)
T1 sequence: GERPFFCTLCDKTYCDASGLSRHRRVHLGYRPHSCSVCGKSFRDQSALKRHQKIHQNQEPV

T2: hZFP57zf1-4 (Homo sapiens, UniProt Q9NU63-3 172-287)
T2 sequence: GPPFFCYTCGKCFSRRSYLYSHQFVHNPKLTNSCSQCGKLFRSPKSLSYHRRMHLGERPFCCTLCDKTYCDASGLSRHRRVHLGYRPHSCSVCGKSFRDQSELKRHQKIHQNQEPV

T3: hZFP57zf3-4 (C232F) (Homo sapiens, UniProt Q9NU63-3 227-287, C232F)
T3 sequence: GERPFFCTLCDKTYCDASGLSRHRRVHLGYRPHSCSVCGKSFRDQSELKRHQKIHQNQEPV

B1: TGCCGC unmethylated probe (dsDNA)
DNA 1: GTAATATTGCCGCAGTAATA
DNA 2: TATTACTGCGGCAATATTAC
B2: TGCmetCGC probe (both strands methylated) (dsDNA)
DNA 1: GTAATATTGCCGCAGTAATA
DNA 2: TATTACTGCGGCAATATTAC
modifications: 5-methylcytosine at C11 of strand 1 and C9 of strand 2

How the values were obtained:
Test in all cases: EMSA
hZFP57zf3-4E273A [1] = biological target: T1, hZFP57zf3-4E273A
hZFP57zf3-4E273A [2] = biological target: T1, hZFP57zf3-4E273A; remark: listed apart in the source
hZFP57zf1-4 = biological target: T2, hZFP57zf1-4
hZFP57zf3-4 (C232F) = biological target: T3, hZFP57zf3-4 (C232F)

Row | Binder | binding result (hZFP57zf3-4E273A [1]) | binding result (hZFP57zf3-4E273A [2]) | binding result (hZFP57zf1-4) | binding result (hZFP57zf3-4 (C232F))
1 | B1 | binds |  |  | 
2 | B2 |  | binds | binds | binds
